For the assay, the target named is T1, human amylin receptor (human, UniProt P30988 25-474; O60896 24-148, limits assumed).
T1 construct: whole, on cells; Calcitonin receptor plus RAMP-3 gives the amylin 3(a) receptor; membranes of Amylin 3(a)/CRE-luc cells were used; also called hAmylin-R; hAmylinR
T1 sequence (looked up) 1: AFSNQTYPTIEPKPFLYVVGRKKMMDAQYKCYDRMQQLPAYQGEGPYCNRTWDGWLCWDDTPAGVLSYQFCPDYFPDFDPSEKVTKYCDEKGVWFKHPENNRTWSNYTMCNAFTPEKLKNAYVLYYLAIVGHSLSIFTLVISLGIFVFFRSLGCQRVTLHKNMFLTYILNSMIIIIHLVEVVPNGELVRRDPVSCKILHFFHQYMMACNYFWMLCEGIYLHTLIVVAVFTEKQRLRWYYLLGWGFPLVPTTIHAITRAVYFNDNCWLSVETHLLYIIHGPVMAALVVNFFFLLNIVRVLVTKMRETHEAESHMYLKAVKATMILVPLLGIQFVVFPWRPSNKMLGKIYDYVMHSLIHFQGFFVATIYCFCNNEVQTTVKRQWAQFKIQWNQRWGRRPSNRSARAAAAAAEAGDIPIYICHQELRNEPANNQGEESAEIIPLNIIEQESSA
T1 sequence (looked up) 2: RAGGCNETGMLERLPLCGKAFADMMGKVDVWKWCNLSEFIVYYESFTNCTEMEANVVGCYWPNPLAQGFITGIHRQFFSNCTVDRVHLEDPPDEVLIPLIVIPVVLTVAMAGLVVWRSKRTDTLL
Description: SPA competition binding, displacement of 125I-rat amylin from membranes with human amylin 3(a) receptor (Assay V). On the procedure:
The binding assay was performed using scintillation proximity assay (SPA) beads (RPNQ0001) from PerkinElmer and cell membranes from the Amylin 3(a)/CRE-luc cells (as described in Assay (II)) were used. Membranes were prepared in the following way; the cells were rinsed with PBS and incubated with Versene for approximately 5 min before harvesting. The cells were flushed with PBS and the cell-suspension was centrifuged for 5 min at 1000 rpm. Cells were homogenized (ultrathurrax) in a buffer containing 20 mM Na-HEPES and 10 mM EDTA (pH 7.4) and centrifuged at 20.000 rpm for 15 min. The resulting pellet was resuspended, homogenized and centrifuged (20.000 rpm, 15 min) in a buffer containing 20 mM Na-HEPES and 0.1 mM EDTA (pH 7.4, buffer 2). The resulting pellet was resuspended in buffer 2 and protein concentration was measured (BCA protein Assay, Pierce). The homogenate was kept cold during the whole procedure. The membranes were kept at −80° C. until use. The assay was performed in a 384 well Optiplate (PerkinElmer) in a total volume of 40 ul. Membranes were mixed with SPA beads. Final concentration of membranes 35 ng/μL final and SPA beads was 0.05 mg/well. Test-compounds were dissolved in DMSO and further diluted in assay buffer (50 mM Hepes, pH 7.4, 1 mM CaCl2, 5 mM MgCl₂, 0.1% OA and 0.02% Tween20). […] The final mixture was incubated with shaking at 400 rpm for 120 min at 25° C. prior to centrifugation (1500 rpm, 10 min). Samples were analyzed on TopCounter™ (Packard). The IC₅₀ was calculated using (one site binding competition analysis) GraphPad Prism5 as a measure of receptor affinity.
(In general: Displacement assays read how much labelled ligand stays bound in the presence of the test substance.)

These results are taken from patent publication US20140087995A1 (published 2014).

Numbered stars: 1 amine (or outer) side, 2 acyl side, 3 side chain; on linkers, the order of the positions; unused ones are H or OH. Bridge positions count the residues as written; N and C are the ends. * marks the point of attachment. C20 diacid = O=C(O)CCCCCCCCCCCCCCCCCCC(=O)*; γGlu = O=C(O)[C@H](CCC(=O)[*:2])N[*:1]

B1: N^α1-[(4S)-4-carboxy-4-(19-carboxynonadecanoylamino)butanoyl]-[Glu14,Arg17,Pro21,Pro26]-h-amylin (peptide)
peptide: {C20 diacid-γGlu}-KCNTATCATQRLAEFLRHSSPNFGAPLSSTNVGSNTY-NH2
modifications: disulfide 2-7
SMILES: CC(C)C[C@H](NC(=O)[C@H](CCCNC(=N)N)NC(=O)[C@H](CCC(N)=O)NC(=O)[C@@H](NC(=O)[C@H](C)NC(=O)[C@@H]1CSSC[C@H](NC(=O)[C@H](CCCCN)NC(=O)CC[C@H](NC(=O)CCCCCCCCCCCCCCCCCCC(=O)O)C(=O)O)C(=O)N[C@@H](CC(N)=O)C(=O)N[C@@H]([C@@H](C)O)C(=O)N[C@@H](C)C(=O)N[C@@H]([C@@H](C)O)C(=O)N1)[C@@H](C)O)C(=O)N[C@@H](C)C(=O)N[C@@H](CCC(=O)O)C(=O)N[C@@H](Cc1ccccc1)C(=O)N[C@@H](CC(C)C)C(=O)N[C@@H](CCCNC(=N)N)C(=O)N[C@@H](Cc1c[nH]cn1)C(=O)N[C@@H](CO)C(=O)N[C@@H](CO)C(=O)N1CCC[C@H]1C(=O)N[C@@H](CC(N)=O)C(=O)N[C@@H](Cc1ccccc1)C(=O)NCC(=O)N[C@@H](C)C(=O)N1CCC[C@H]1C(=O)N[C@@H](CC(C)C)C(=O)N[C@@H](CO)C(=O)N[C@@H](CO)C(=O)N[C@H](C(=O)N[C@@H](CC(N)=O)C(=O)N[C@H](C(=O)NCC(=O)N[C@@H](CO)C(=O)N[C@@H](CC(N)=O)C(=O)N[C@H](C(=O)N[C@@H](Cc1ccc(O)cc1)C(N)=O)[C@@H](C)O)C(C)C)[C@@H](C)O
notes: also called 14E, 17R, 21P, 26P
In turn, B1 returned an IC50 of 0.674 nM.

B2: N^α1-[(4S)-4-carboxy-4-(19-carboxynonadecanoylamino)butanoyl]-[Glu14,Arg17,Pro21,Pro27,His35]-h-amylin (peptide)
peptide: {C20 diacid-γGlu}-KCNTATCATQRLAEFLRHSSPNFGAIPSSTNVGSHTY-NH2
modifications: disulfide 2-7
SMILES: CC[C@H](C)[C@H](NC(=O)[C@H](C)NC(=O)CNC(=O)[C@H](Cc1ccccc1)NC(=O)[C@H](CC(N)=O)NC(=O)[C@@H]1CCCN1C(=O)[C@H](CO)NC(=O)[C@H](CO)NC(=O)[C@H](Cc1c[nH]cn1)NC(=O)[C@H](CCCNC(=N)N)NC(=O)[C@H](CC(C)C)NC(=O)[C@H](Cc1ccccc1)NC(=O)[C@H](CCC(=O)O)NC(=O)[C@H](C)NC(=O)[C@H](CC(C)C)NC(=O)[C@H](CCCNC(=N)N)NC(=O)[C@H](CCC(N)=O)NC(=O)[C@@H](NC(=O)[C@H](C)NC(=O)[C@@H]1CSSC[C@H](NC(=O)[C@H](CCCCN)NC(=O)CC[C@H](NC(=O)CCCCCCCCCCCCCCCCCCC(=O)O)C(=O)O)C(=O)N[C@@H](CC(N)=O)C(=O)N[C@@H]([C@@H](C)O)C(=O)N[C@@H](C)C(=O)N[C@@H]([C@@H](C)O)C(=O)N1)[C@@H](C)O)C(=O)N1CCC[C@H]1C(=O)N[C@@H](CO)C(=O)N[C@@H](CO)C(=O)N[C@H](C(=O)N[C@@H](CC(N)=O)C(=O)N[C@H](C(=O)NCC(=O)N[C@@H](CO)C(=O)N[C@@H](Cc1c[nH]cn1)C(=O)N[C@H](C(=O)N[C@@H](Cc1ccc(O)cc1)C(N)=O)[C@@H](C)O)C(C)C)[C@@H](C)O
notes: also called 14E, 17R, 21P, 27P, 35H
B2: the IC50 amounted to 0.554 nM.

B3: N^α1-[(4S)-4-carboxy-4-(19-carboxynonadecanoylamino)butanoyl]-[Glu14,Arg17,Pro21,Pro27,Asp35,Pro37]-h-amylin (peptide)
peptide: {C20 diacid-γGlu}-KCNTATCATQRLAEFLRHSSPNFGAIPSSTNVGSDTP-NH2
modifications: disulfide 2-7
SMILES: CC[C@H](C)[C@H](NC(=O)[C@H](C)NC(=O)CNC(=O)[C@H](Cc1ccccc1)NC(=O)[C@H](CC(N)=O)NC(=O)[C@@H]1CCCN1C(=O)[C@H](CO)NC(=O)[C@H](CO)NC(=O)[C@H](Cc1c[nH]cn1)NC(=O)[C@H](CCCNC(=N)N)NC(=O)[C@H](CC(C)C)NC(=O)[C@H](Cc1ccccc1)NC(=O)[C@H](CCC(=O)O)NC(=O)[C@H](C)NC(=O)[C@H](CC(C)C)NC(=O)[C@H](CCCNC(=N)N)NC(=O)[C@H](CCC(N)=O)NC(=O)[C@@H](NC(=O)[C@H](C)NC(=O)[C@@H]1CSSC[C@H](NC(=O)[C@H](CCCCN)NC(=O)CC[C@H](NC(=O)CCCCCCCCCCCCCCCCCCC(=O)O)C(=O)O)C(=O)N[C@@H](CC(N)=O)C(=O)N[C@@H]([C@@H](C)O)C(=O)N[C@@H](C)C(=O)N[C@@H]([C@@H](C)O)C(=O)N1)[C@@H](C)O)C(=O)N1CCC[C@H]1C(=O)N[C@@H](CO)C(=O)N[C@@H](CO)C(=O)N[C@H](C(=O)N[C@@H](CC(N)=O)C(=O)N[C@H](C(=O)NCC(=O)N[C@@H](CO)C(=O)N[C@@H](CC(=O)O)C(=O)N[C@H](C(=O)N1CCC[C@H]1C(N)=O)[C@@H](C)O)C(C)C)[C@@H](C)O
notes: also called 14E, 17R, 21P, 27P, 35D, 37P
For B3, the IC50 worked out at 0.105 nM.

The IC50 is the concentration needed to halve the response being measured. The low end stands for inhibition by little substance, the high end for a need for much substance.
